Read-outs that look alike come from different tables or passages of the source.
T1: AtALBA2 (Arabidopsis thaliana, UniProt O22969 1-130)
T1 sequence: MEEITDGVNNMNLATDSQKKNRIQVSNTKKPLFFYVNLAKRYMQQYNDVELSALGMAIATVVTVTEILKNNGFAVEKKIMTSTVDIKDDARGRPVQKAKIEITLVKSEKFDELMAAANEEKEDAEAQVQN

T2: AtALBA2 K30E (Arabidopsis thaliana, UniProt O22969 1-130, K30E)
T2 sequence: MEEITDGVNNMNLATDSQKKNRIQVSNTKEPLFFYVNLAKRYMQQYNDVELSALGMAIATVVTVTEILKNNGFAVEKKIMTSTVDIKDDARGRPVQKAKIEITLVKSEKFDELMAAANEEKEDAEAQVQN


Experiments:
Assay in all cases: EMSA
AtALBA2 [1] = molecular target: T1, AtALBA2
AtALBA2 K30E = molecular target: T2, AtALBA2 K30E
AtALBA2 [2] = molecular target: T1, AtALBA2; remark: listed apart in the source

Binder	binding result (AtALBA2 [1])	binding result (AtALBA2 K30E)	binding result (AtALBA2 [2])
artificial R-loop (mixed) DNA 1: GCTCGCAAACTACTTAGATGTCATCCGCGAGG DNA 2: CCTCGCAAGCGGCGATGATGAGATTCGAAAGCGAGC RNA: UCGAAUCUCAUCAUCGCCGC	binds	–	–
dsDNA (EMSA-DNA) (dsDNA) DNA 1: TCGAATCTCATCATCGCCGC DNA 2: GCGGCGATGATGAGATTCGA	–	no binding	binds
